Measurements taken from patent US20120237518A1.

Target: recombinant human Trop-2/Fc/His fusion protein (manufactured by R&D) (human) (UniProt P09758)
Assay: SPR (Biacore T100), Trop-2/Fc/His captured by Tetra-His antibody on CM5 chip, antibody as analyte, Bivalent Analyte model, mean of duplicates

recombinant human Trop-2/Fc/His fusion protein (manufactured by R&D) (human), sequence (P09758 27-274 limits assumed): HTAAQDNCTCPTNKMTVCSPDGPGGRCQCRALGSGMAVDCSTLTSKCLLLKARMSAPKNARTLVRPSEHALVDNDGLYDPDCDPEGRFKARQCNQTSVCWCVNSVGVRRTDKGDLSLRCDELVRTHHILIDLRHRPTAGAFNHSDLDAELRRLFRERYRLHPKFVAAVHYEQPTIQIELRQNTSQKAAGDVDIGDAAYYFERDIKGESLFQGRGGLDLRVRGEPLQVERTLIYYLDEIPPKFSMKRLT

Kd [nM]	koff [s⁻¹]	kon [M⁻¹ s⁻¹]	Substance
1.1	0.00061	555000	77220 (manufactured by R&D), anti-Trop-2 mouse monoclonal antibody
0.929	0.000184	183000	MOv16 (manufactured by Alexis), anti-Trop-2 mouse monoclonal antibody
